16 molecules from US20220396788, “RECOMBINANT TRANSPOSON ENDS” (THERMO FISHER SCIENTIFIC BALTICS, UAB, published 2022) can be followed below.

The target of data set [1] is T1, MuA transposase (UniProt P07636 P07636:1-663). Description: EMSA; 13 substitutions (3 sensitive); active (FIG. 13A). Particulars: chain copies: 4 (inferred); 5' overhang. On the procedure: (§1) MuA transposomes were formed in 1× Complex Assembly Buffer with DMSO. Complex assembly reaction contained equimolar ratio of transposon end (9.3 μM) and MuA transposase (1.65 mg/mL). Components were well-mixed and incubated for one hour at 30° C. After incubation, the complex assembly mix was diluted with dilution buffer (88.0% glycerol, 314.5 mM NaCl, and 2.83 mM EDTA) to the final MuA concentration of 0.919 mg/mL. Complexed MuA transposome was stored at −70° C. for at least 16 hours before use.
T1 sequence (P07636 whole entry, one chain of several): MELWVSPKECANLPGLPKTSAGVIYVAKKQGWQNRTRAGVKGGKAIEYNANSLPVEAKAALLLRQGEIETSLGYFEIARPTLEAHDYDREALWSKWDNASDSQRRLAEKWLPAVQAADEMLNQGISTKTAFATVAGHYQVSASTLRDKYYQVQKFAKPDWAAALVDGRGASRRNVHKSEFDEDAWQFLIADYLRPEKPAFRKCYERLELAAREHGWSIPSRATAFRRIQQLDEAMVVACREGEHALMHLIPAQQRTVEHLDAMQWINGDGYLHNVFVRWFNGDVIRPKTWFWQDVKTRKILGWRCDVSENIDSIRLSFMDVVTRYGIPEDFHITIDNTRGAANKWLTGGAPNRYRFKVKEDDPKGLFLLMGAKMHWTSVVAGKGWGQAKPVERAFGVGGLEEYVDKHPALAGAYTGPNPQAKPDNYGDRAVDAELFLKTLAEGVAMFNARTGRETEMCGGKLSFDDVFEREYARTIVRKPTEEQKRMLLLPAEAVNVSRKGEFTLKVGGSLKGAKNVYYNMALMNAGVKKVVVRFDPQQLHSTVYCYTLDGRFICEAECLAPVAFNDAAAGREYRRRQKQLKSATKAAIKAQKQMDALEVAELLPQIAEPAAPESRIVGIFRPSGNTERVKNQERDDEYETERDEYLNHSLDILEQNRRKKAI
(§2) Complex assembly efficiency was evaluated using an electrophoretic mobility shift assay (EMSA) on a 2% agarose gel containing 0.5 μg/mL Ethidium bromide and 87 μg/mL BSA and heparin. Activity was evaluated by fragmenting 100 ng Escherichia virus lambda genomic DNA with 1.5 μL MuA complex in 1× Fragmentation Reaction Buffer (Thermo Scientific™ MuSeek™ Library Preparation Kit, Illumina™ compatible, Cat. No. K1361). Fragmentation was carried out for 5 minutes at 30° C., then stopped by adding 4.4% SDS solution.
A general note: In EMSA bound probe runs differently from free probe, usually more slowly.

Data set [2] has as its target T1, MuA transposase. In words: EMSA; transposome assembly pH 6.0, 10% DMSO, 30 C 1 h; also fragments lambda DNA (FIG. 5A). Particulars: chain copies: 4 (inferred); 5' overhang on non-transferred strand. On the procedure: Analysis was carried out on 2% agarose gel containing 0.5 μg/mL Ethidium bromide and 87 μg/mL BSA and heparin. 5 μL of each loaded sample contains 2 μL of each transposome complex, 1 μL 6× TriTrack DNA Loading Dye (Thermo Scientific, Cat. No. R1161) and 2 μL of water. GeneRuler Low Range DNA Ladder (Thermo Scientific, Cat. No. SM1193) was used.
MuA transposomes were formed in 30 mM Tris-HCl, pH 6.0, 10% (v/v) glycerol, 0.005% (w/v) Triton X-100, 30 mM NaCl, 0.02 mM EDTA, and 10% DMSO. The complex assembly reaction contained equimolar ratio of transposon end (11.2 μM) and MuA transposase (1.65 mg/mL). Components were well mixed and incubated for one hour at 30° C. After incubation, the complex assembly mix was diluted with dilution buffer (88.0% glycerol, 314.5 mM NaCl, and 2.83 mM EDTA) to the final MuA concentration of 0.919 mg/mL. Complexed MuA transposome was stored at −70° C. for at least 16 hours before use.
Complex assembly efficiency was evaluated using an electrophoretic mobility shift assay (EMSA) on a 2% agarose gel containing 0.5 μg/mL ethidium bromide and 87 μg/mL BSA and heparin. Activity was evaluated by fragmenting 100 ng Escherichia virus lambda genomic DNA with 1.5 μL MuA complex in 30 μL of 1× Fragmentation Reaction Buffer (Thermo Scientific™ MuSeek™ Library Preparation Kit, Illumina™ compatible, Cat. No. K1361). […]

Data set [3] concerns the target T1, MuA transposase. In words: EMSA; stable transposome; DMSO, 30 C 1 h; active (FIG. 9). The following applies: chain copies: 4 (inferred); 5' overhang. Here is the method:
FIG. 8 provides EMSA analysis of MuA transposomes that all contain individual unique sequences. Analysis was carried out on 2% agarose gel containing 0.5 μg/mL Ethidium bromide and 87 μg/mL BSA and heparin. 5 μL of each loaded sample contains 2 μL of each transposome complex, 1 μL 6× TriTrack DNA Loading Dye (Thermo Scientific, Cat. No. R1161), and 2 μL of water. GeneRuler Low Range DNA Ladder (Thermo Scientific, Cat. No. SM1193) marker was used.
MuA transposomes were formed in 1× Complex Assembly Buffer with DMSO. The complex assembly reaction contained equimolar ratio of transposon end (9.3 μM) and MuA transposase (1.65 mg/mL). Components were well-mixed and placed for incubated for one hour at 30° C. After incubation, the complex assembly mix was diluted with dilution buffer (88.0% glycerol, 314.5 mM NaCl, and 2.83 mM EDTA) to the final MuA concentration of 0.919 mg/mL. Complexed MuA transposome was stored at −70° C. for at least 16 hours before use.

The target of data set [4] is T1, MuA transposase. In words: EMSA; 8 substitutions (1 sensitive); active (FIG. 13C). The following applies: chain copies: 4 (inferred); 5' overhang. On the procedure: as §1, §2
Data set [5] concerns the target T1, MuA transposase. Description: EMSA; 8 substitutions (1 sensitive); active (FIG. 13B). The following applies: chain copies: 4 (inferred); 5' overhang. On the procedure:
as §1, §2

Numbering of substitutions follows the chain as printed.

B1: Tn-SEQ1 (dsDNA)
DNA 1: GTTTTAGATGTGTATAAGAGACAGTTTCGCGTTTTTCGTGCGCCGCTTCA
DNA 2: CTAGTGAAGCGGCGCACGAAAAACGCGAAACTGTCTCTTATACACATCTAAAAC
As for B1, the binding result in data set [1] was “binds”.

B2: Mu-N0 transposon end (control) (dsDNA)
DNA 1: GTTTTCGCATTTATCGTGAAACGCTTTCGCGTTTTTCGTGCGCCGCTTCA
DNA 2: CTAGTGAAGCGGCGCACGAAAAACGCGAAAGCGTTTCACGATAAATGCGAAAAC
With B2, the binding result in data set [2] is “binds”.

B3: ACGC barcode end (dsDNA)
DNA 1: B2 DNA 1 with G45A, T47G, T48C
DNA 2: B2 DNA 2 with A7G, A8C, C10T
Consider B3, for which the binding result in data set [3] was “binds”.

B4: GCGT barcode end (dsDNA)
DNA 1: B2 DNA 1 with T47G
DNA 2: B2 DNA 2 with A8C
With B4, the binding result in data set [3] is “binds”.

B5: TATA barcode end (dsDNA)
DNA 1: B2 DNA 1 with G45T, C46A, T48A
DNA 2: B2 DNA 2 with A7T, G9T, C10A
Consider B5, for which the binding result in data set [3] is “binds”.

B6: GGGA barcode end (dsDNA)
DNA 1: B2 DNA 1 with C46G, T47G, T48A
DNA 2: B2 DNA 2 with A7T, A8C, G9C
In the case of B6, the binding result in data set [3] is recorded as “binds”.

B7: AGAG barcode end (dsDNA)
DNA 1: B2 DNA 1 with G45A, C46G, T47A, T48G
DNA 2: B2 DNA 2 with A7C, A8T, G9C, C10T
Regarding B7, in data set [3], the binding result is “binds”.

B8: CTCT barcode end (dsDNA)
DNA 1: B2 DNA 1 with G45C, C46T, T47C
DNA 2: B2 DNA 2 with A8G, G9A, C10G
As to B8, the binding result in data set [3] is listed as “binds”.

B9: TACG barcode end (dsDNA)
DNA 1: B2 DNA 1 with G45T, C46A, T47C, T48G
DNA 2: B2 DNA 2 with A7C, A8G, G9T, C10A
For B9, the binding result in data set [3] is reported as “binds”.

B10: ACAT barcode end (dsDNA)
DNA 1: B2 DNA 1 with G45A, T47A
DNA 2: B2 DNA 2 with A8T, C10T
On to B10, for which the binding result in data set [3] was “binds”.

B11: GTAC barcode end (dsDNA)
DNA 1: B2 DNA 1 with C46T, T47A, T48C
DNA 2: B2 DNA 2 with A7G, A8T, G9A
Turning to B11, the binding result in data set [3] is recorded as “binds”.

B12: CGCA barcode end (dsDNA)
DNA 1: B2 DNA 1 with G45C, C46G, T47C, T48A
DNA 2: B2 DNA 2 with A7T, A8G, G9C, C10G
In the case of B12, the binding result in data set [3] is “binds”.

B13: CATG barcode end (dsDNA)
DNA 1: B2 DNA 1 with G45C, C46A, T48G
DNA 2: B2 DNA 2 with A7C, G9T, C10G
Regarding B13, the binding result in data set [3] is recorded as “binds”.

B14: TTTC barcode end (dsDNA)
DNA 1: B2 DNA 1 with G45T, C46T, T48C
DNA 2: B2 DNA 2 with A7G, G9A, C10A
With B14, in data set [3], the binding result is recorded as “binds”.

B15: Tn-SEQ2.2 (dsDNA)
DNA 1: GTTTTCGCATTTATCGTGAAACGCTTTCGCGTTTTTGCTCTTCCGATCTA
DNA 2: CTAGTAGATCGGAAGAGCAAAAACGCGAAAGCGTTTCACGATAAATGCGAAAAC
For the molecule B15, the binding result in data set [4] is listed as “binds”.

B16: Tn-SEQ2.1 (dsDNA)
DNA 1: GTTTTCGCTCTTCCGATCTAACGCTTTCGCGTTTTTCGTGCGCCGCTTCA
DNA 2: CTAGTGAAGCGGCGCACGAAAAACGCGAAAGCGTTAGATCGGAAGAGCGAAAAC
With B16, the binding result in data set [5] is listed as “binds”.
